Consider 40 sequences from the nanobody polyreactivity screen of Harvey et al. (2022).

This series can be described thus: yeast display, Sf9 membrane polyspecificity reagent, FACS + sequencing; frameworks hold sequencing errors. In a few lines:
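Sorting gates, low and high (top ~1%), were placed on anti-HA fluorescence to track expression and on streptavidin fluorescence to track reagent binding. A clone's polyreactivity label is taken from the gate it came out of. The reagent was 10% biotinylated, detergent-solubilized Sf9 membrane, applied for 1 hour at 4 °C to galactose-induced yeast display cells.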
In the case of “QVQLVESGGGLVQAGGSLRLSCAPSGITFTHYVMGWYRQAAGKERELVAAITSGGRTNYADSVKGRFTISRDNAKNTVYLQMNSLIPEDTAVYYCNAVKRVGDYWGRSFDYDYWGQGTKVTVSS”, the “polyreactivity (PSR sort gate)” value is given as “high polyreactivity”.

“QVQLVESGGGLVQAGGSLRLSCAASGFIFRIYAMGWYRQAPGKERELVAAITWDGVSTYYADSVKGRFTISRDNAKNTVYLQMNSLKPEDTAVFYCAARKRSYPYYYWGQGTQVNVSS”: the “polyreactivity (PSR sort gate)” value was “high polyreactivity”.

In the case of “QVQLVESGGGLVQAGGSLRLSCAASGRTFCGNVMGWYRQAPGKERELVAAITNGASTNYADSVKGRFTISRDNAKNTVYLQMNSLKPEDTAVYYCAASANNWRRRGRSYEYWGQGTQVTVSS”, the “polyreactivity (PSR sort gate)” value is recorded as “low polyreactivity”.

Regarding “QVQHLESGGGLVQAGGSLRLSCAASAITFDHYAMGWYRQAPGKEREFVAAIDDIGGDTYYPDSVKGRFTSSRDNAKNNVYLQMNSVQPEDTAVYDCNADGEGADSDYEYWGQGNQVTVSS”, the “polyreactivity (PSR sort gate)” value is “low polyreactivity”.

For the sequence “QVHLVESGGGLFQAGGSLRLSCAASGGIFSIYAMGWYRQAPGKERELVAAISTSGGSTYYADSLKGRFTISRDNAKNSVYLQMNSLKPEDTAVYYCNARRGFYWSWRGRYISGDYWGQGTQVTVSS”, the “polyreactivity (PSR sort gate)” value is “high polyreactivity”.

Turning to “QVLLVESGGGLVQAGGSLRLSCAASGISIRAKAMGGYRQAPGKVRELVAAITWSGGDPYYADSVKGRFTISRDNAKNTVYLQMNSLKPEDTAVYYCNALQPGLGSPLGEYDYWGQGTQVTVSS”, the “polyreactivity (PSR sort gate)” value was “low polyreactivity”.

“QVQLVESGGGLVQAGGSLRLSCAASGSIFDDYAMGWYRQAPGKERELVAAISWSGGRTYYADSVKGRFTISRDNAKTTVYLQMNSLKPEDTAVYDCAATTGVRSRRYYYWGQGTQVTVSS”: the “polyreactivity (PSR sort gate)” value is listed as “low polyreactivity”.

As for “QVQLVESGGGLVQAGGSLRLSCAASGFTFVVYAMGWYRQAPGKERELVAAIRRTGGSTYYADSVKGRFTISRDNAKNTVYLQMNSLKPEDTAVYYCAAHAISYQSRYRYRYGSVDYWGQGTQVTVSS”, the “polyreactivity (PSR sort gate)” value was “high polyreactivity”.

Regarding “QVQLVESGGGLVQAGGSLRLICAASGRIFNRYAMGWYRQAPGNERELVAAITWSGDRTNYADSVKGRFTISRDNAKNTVYLLMNSLKPEDTAVYYCAAADGIIESDYWGQGTQVTVSS”, the “polyreactivity (PSR sort gate)” value was “low polyreactivity”.

On to “QVQLVESGGGLVQAGGSLRLSCAASGRIFSRYAMGWYRQAPGKERELVATISSGGGTYYADSVKGRFTISRDNAKNTVYLQMNSLKPEDTAVYYCAAASYSGHGRYDDWGQGTQVPVSS”, for which the “polyreactivity (PSR sort gate)” value is given as “high polyreactivity”.

Consider “QVQLVESGGGLVQAGGSLRLSCAASGSIFYSYDMGWYRQAPGKERELVAAIDWSGGSTYYADSVKGRFTISRDNAKNTVYLQMNSLKPEDTAVYYCAADDQVEGDYWGQGTQVTVSS”, for which the “polyreactivity (PSR sort gate)” value is “high polyreactivity”.

Regarding “QVQLVESGGGLVQAGGSLRLSCAASGRIFRYYAMGSYRQAPGKERELVAAISRSGGSTYYADSVKGRFTISRDNAKNTVYLQMNSLKPEDTAVYSCAARLAGRGSSSSRVVRTGGYWGQGTQVTVSS”, the “polyreactivity (PSR sort gate)” value is “high polyreactivity”.

Consider “QVQLVESGGGLVQAGGSLRLICAASGRTFRYNAMGWYRQAPGKERELVAAITQSGGSTYYADSVKGRFTISRDNAKNTVYLQMNSLKPEDTAVYYCAKVRERINYDYWGQGTQVTVSS”, for which the “polyreactivity (PSR sort gate)” value is “low polyreactivity”.

With “QVQLVESGGGLVQAGGSLRLRCAASGSTFASYAMGGYRQAPGKERELVAAITRSGGSTYYADSVKGRFTISRVKAKNTVYLQMNSLKPEDTAVYYCARRAVYGIFDYWGQGTQVTVSS”, the “polyreactivity (PSR sort gate)” value is “high polyreactivity”.

With “QVQLVESGRGLVQAGGSLRLSCAASGRTFPYYAMGWYRQAPGKERELVAAISSSGGSTYYADSVKGRFTISRDNAKNTVYLQMNSLKPEDTAVYYCNRYSRLYLTDDDYWGQGTLVTVSS”, the “polyreactivity (PSR sort gate)” value was “high polyreactivity”.

“QVQLVESGGGLVQAGGSLRLSCAASGSSFPVNGIGWYRQAPGKERELVAVITDSDGSTYYADSVKGRFTISRDNAKNTVYLQMNSLKPEDTAVYYCAADDYAYSYGYWLTYDYWGQGTQVTVSS”: the “polyreactivity (PSR sort gate)” value is on record as “low polyreactivity”.

Turning to “QVQLVESWGGLVHAGGSLRLSCAASGSIFDWYAMGWYRQAPGTERELVAAINEGGGSTYYADSVKGRFTISRDNAKNSVYLQMNSLKPEDTAVYYCAAGDYYLQDNYWGQGTQVTVSS”, the “polyreactivity (PSR sort gate)” value is “low polyreactivity”.

Regarding “QVQRVESGGGLVQAGGSLRLSCAASGSTFWFNAMGWYRQAPGKERELVAAITYRGASTNYADSVKGRFTISRDNAKNTVYLQMNSLKPEDTAVYYCATRPTWRPVPDSDVSTYGYWGQGTQVTVSS”, the “polyreactivity (PSR sort gate)” value is “low polyreactivity”.

In the case of “QVQIVESGGRLDQAGGILRLSCAASGRTFTVNAMGWNRQAPGKERELVATIRSGGTTNYAASVKGRFTISRDNAKNTVYLTMNRLKPEDTAVYYCNARVLTRTSVVRYYYWGQGTQVTVSS”, the “polyreactivity (PSR sort gate)” value was “high polyreactivity”.

In the case of “QVQRVESGGGLVQAVGRLRLSCAASGSTFYTYTMGWYRPARGKERELVAAITWSGGSTYYADSVKGRFTISRDNAKNTVYLQMNRLKPEDTAVYYCNADQDYQGARPSGMDYWGLGTQVTVSS”, the “polyreactivity (PSR sort gate)” value is given as “low polyreactivity”.

As to “QVQLVESGGGLVQAGGSLRLSCAASGSNIYPNAMGWYRQEPGKEREFVAVISSGGSTYYADSVKGRFTISRDNAKNTVYLQMNSMKPEDTAVYYCAADRGTVSFLYSPRAVDYWGQGTQVTVSS”, the “polyreactivity (PSR sort gate)” value is “low polyreactivity”.

Turning to “QVQLVESGGGLVQAGGSLRLSCAASGGTFTRYTMGWYRQAHGKESELVAAISSSGGSTYYADSVKGRFTISRDNAKNTVYLQMNSLKPEDTAVYYCAAFKASSKQYPYDYWGQGTQVTVSS”, the “polyreactivity (PSR sort gate)” value is “high polyreactivity”.

Take “QVQLVESGGGLVQAGGSLRLSCAASGRTFYYYAMGWYRQAPGKERELVAGITATGSSTYYADSVKGRFTISRDNAKNTVYLQMNSLKPEDTAVYYCAADRYTTYSGQWSYPYDYWGQGTQVTVSS”: the “polyreactivity (PSR sort gate)” value was “low polyreactivity”.

With “QVQLVESGGGLVQAGGSLRLSCAASGGIFPYYAMGWYRQAPGKERELVADISSGGSTYYADSVKGRFTISRDNAKNSVYLQMNSLKPDDTAVYYCAADAGQYFTYSGDDNHDYWGQGTQVTVSS”, the “polyreactivity (PSR sort gate)” value is “low polyreactivity”.

As for “QVQLVESGGGLVQAGGSLRLSCAASGRTFKYYAMGWYRQAPGKERELVATITWSGTSTNYADSVKGRFTISRDTANNSVYLQMNSLKPEDTAVYYCAARSKRRNYDYWGQGTQVTVSS”, the “polyreactivity (PSR sort gate)” value is listed as “high polyreactivity”.

In the case of “QVQLEESGGGLVQAGGSLRLSCAGSGRIFAYYPMGWYRQAPGKERELVAAISRSGVSTYYADSVKGRFTISRDNAKNTVYLQMNSLKPEDTAVYYCAATYWRRGGYRMEYWGQGTQVTVSS”, the “polyreactivity (PSR sort gate)” value is recorded as “low polyreactivity”.

Regarding “QVQLVESGGGLVQAGGSLRLSCAASGHIFFYYTMGWYRQAPGKERELVAGITIGGSTNYADSVKGRFTISRDNAKNTVYLEMNSLKPEDTAVYYCNVVKYVFFYSYWEYYYWGQGTQVTVSS”, the “polyreactivity (PSR sort gate)” value is “low polyreactivity”.

On to “QDQLVESGGGLVQAGGSIRLSCAASGYIFLLYDMGWYRQAPGKERDMVATITSGGGTYYADSVKGPFTISRDNAKNTVYLQMNSLKPEDTAVYYCNADLYRWTGRSYWDKHGYWGQVTQVTVSS”, for which the “polyreactivity (PSR sort gate)” value is recorded as “low polyreactivity”.

On to “QVQLVESGGGLVQAGGSLRLSCAASGRIFDKYTMGWYRQAPGKERELVAAISKSGSGTFYADSVKGRFTISRDNAKNTVYLQMNSLKPEDTAVYYCARVYTVGTGRSWRLDYWGQGTQVTVSS”, for which the “polyreactivity (PSR sort gate)” value is recorded as “high polyreactivity”.

In the case of “QVQLVESGGGLVQAGGSLRLSCAASGSTFAYYAMGWYRQAPGKEREWVAGISGSGGSTYYADSVKGRFTISRDYAKNTVYLHMNSLKPEDTAVYYCAVVQRSKRTYPWYDYWGQGSQVTVSS”, the “polyreactivity (PSR sort gate)” value is “low polyreactivity”.

With “QVQLVESGGGLVQAGGSLRLSCAASGIQVYNAMGWYRQAPGKERELVAAISARGGRTYYADSVKGRFTISRDNAKNTVYLQMNSLKPEDTAVYYCATLETTGVNYWGQGTLVTVSS”, the “polyreactivity (PSR sort gate)” value is recorded as “high polyreactivity”.

Take “QVQLVESGGGLVQAGGSLRLSCAASGYTFGSNAMGWYRQAPGKERELVAAISTNGGRTNYADSVKGRFTISRDYAKNSVYLQMYSLIPEDTAVYYCNTRLRVRYYLSGFDYWGQGTQVTVSS”: the “polyreactivity (PSR sort gate)” value is on record as “high polyreactivity”.

Turning to “QVQLVESAGGLVQAGGSLRLSCSASGLTFVPNAMGWYRQAPGKERELVATISSSGGRTTYADSVKGRFTISRDKAKNTVYLQMNSLKPEDTAVYYCADQGYWTGYDYWGQGTQVTVSS”, the “polyreactivity (PSR sort gate)” value was “high polyreactivity”.

As for “QVQLVESGGGLVQAGGSLRLSCAASGSTFRYNSMGWYRQAPGKDRELVAAISRIGGTTYADSVKGRFTISRDNAKNTVYLQMNSLNPEDTAVYYCARANWGYYGPEYGYWGQGTQVTVSS”, the “polyreactivity (PSR sort gate)” value is recorded as “high polyreactivity”.

With “QVQLVESGGGLVQAGGSLRLSCAASGSIFRYNAMGWYRQAPGKERELVAAITSGDSTYYADSVKGRFTISRDNAKNTVYLQMISLKPEDTAVYYCAADDWRPFDGYYPLKSEREYWGQGTEVTVSS”, the “polyreactivity (PSR sort gate)” value was “low polyreactivity”.

Regarding “QVQLVESGGGLVQAGGSLRLSCAASGSTFNWNAMRWYRQPPGKERELVAAITSSGARTRYADSVKGRFTISRDNAKNTVYLQMNSLKPEDTAVYYCAAYVYISPSGYYYWGLGTQVTVSS”, the “polyreactivity (PSR sort gate)” value is on record as “low polyreactivity”.

With “QVQLVESGGGLVQAGGSLRLSCAASGSSFRVYAMGWSRQAPGKERELVASISRRGGSTYYADSVKGRFTISRDNAKTTVYIQMNSLKPEDTAVYYCNVPYYSFRDVSSYYSGQGTQVTVSS”, the “polyreactivity (PSR sort gate)” value is recorded as “high polyreactivity”.

As to “QVQLVESGGGLVQAGGSLRLSCAASGSTFVTYVMGWYRQAPGKERELVADIRRSGGSTYYADSVKGRFTISRDNAKNTVYLQMNSLKPEDTAVYYCAAYQYYYVNEVRRYYYWGQGTQVTVSS”, the “polyreactivity (PSR sort gate)” value is on record as “high polyreactivity”.

Take “QVQLVESGGGLVQAGGSLRLSCAASGSSLWENAMGWYRQAPGKERQLVATISVSGGGTYYADSVKGRFTISRDNAKNTVYLQMTSLKPEDTAVYYCTARYGNESQGWADYWGQGTQVTVSS”: the “polyreactivity (PSR sort gate)” value is on record as “low polyreactivity”.

Turning to “QVQLVESGGGLVQAGGSLLLSCAASGSTFAWYAMGWNRQAPGKERELVAAISRTGRTYYADSVKGRFTISRDNAKNTVYLEMNSLKPEDTAVYYCAARIERFYRDQRYDYWGQGTQVTVSS”, the “polyreactivity (PSR sort gate)” value was “high polyreactivity”.
